From US20250262323, “PCSK9 ENDONUCLEASE VARIANTS, COMPOSITIONS, AND METHODS OF USE” (Novo Nordisk A/S, published 2025) come the findings set out here.

Data set [1] concerns the target T1, PCSK9.H7.C11 I-OnuI HE variant (synthetic construct (Ophiostoma …)).
T1 chain: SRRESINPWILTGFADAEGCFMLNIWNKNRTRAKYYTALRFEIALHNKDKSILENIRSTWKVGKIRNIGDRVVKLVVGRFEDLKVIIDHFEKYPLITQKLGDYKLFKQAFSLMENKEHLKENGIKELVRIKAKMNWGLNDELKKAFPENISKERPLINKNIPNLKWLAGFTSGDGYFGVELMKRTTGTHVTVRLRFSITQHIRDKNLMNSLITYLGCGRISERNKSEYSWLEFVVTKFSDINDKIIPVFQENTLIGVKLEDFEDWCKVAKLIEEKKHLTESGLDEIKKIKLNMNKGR
The data set can be described thus: cell_activity; HEK 293T chromosomal mCherry reporter. As for the experimental part:
The activity of reprogrammed I-OnuI HEs that target exon 4 of the PCSK9 gene was measured using a chromosomally integrated fluorescent reporter system (Certo et. al., 2011). Fully reprogrammed I-OnuI HEs that bind and cleave the PCSK9 target sequence were cloned into mammalian expression plasmids and then individually transfected into a HEK 293T […] cell line that contained the PCSK9 target sequence upstream of an out-of-frame gene encoding the fluorescent mCherry protein. Cleavage of the embedded target site by the HE and the accumulation of indels following DNA repair via the non-homologous end joining (NHEJ) pathway results in approximately one out of three repaired loci placing the fluorescent reporter gene back “in-frame”. The percentage of mCherry fluorescing HEK 293T cells is therefore used a readout of endonuclease activity at the chromosomally embedded target sequence. […] FIG. 3 (top panels).
A secondary I-OnuI variant library was next generated by performing random mutagenesis on the PCSK9.H7 HE variant (e.g., SEQ ID NO: 6). Display-based flow sorting was performed under more stringent cleavage conditions in an effort to isolate variants with improved catalytic efficiency. FIG. 3 (bottom panel). This process led to variant PCSK9.H7.C11 (SEQ ID NO: 7) with an approximately 2-fold higher rate of mCherry expressing cells.

For data set [2], the target named is T1, PCSK9.H7.C11 I-OnuI HE variant. The data set can be described thus: flow; sub-nanomolar affinity; yeast surface display substrate titration; exact value only in figure. The following applies: tags: yeast surface display.

B1: PCSK9 exon 4 HE target site (dsDNA)
DNA 1: ATCTAAGAGATACACCTCCACC
DNA 2: GGTGGAGGTGTATCTCTTAGAT
For B1, the activity in data set [1] is approximately 2 fold vs PCSK9.H7. The same molecule gave a Kd in data set [2] of less than 1 nM.

The term Kd denotes the free concentration of one partner at which half of the binding sites on the other are occupied at equilibrium, for simple one-to-one binding. Read a high Kd as weaker binding.
